Patent US8703915B2, “Mutant proteins and methods for producing them” (Heptares Therapeutics Limited, priority 2009, dated 2014)

Experiments:
5HT2C receptor [1] = assay: Thermostability of 5HT2C receptor bound to agonist SCH23390; assay type: physicochemical, human
Protocol: An alanine scan has been carried out on the 5HT2C receptor in the presence of the agonist SCH23390 in order to stabilise the agonist conformation. Similar to A2A, it appears that mutating L2.46 (L95 in 5HT2C) to alanine confers significant stability on this receptor increasing the Tm of the receptor by 5.4° C. (FIG. 7). It is notable that in addition to L95, mutating the nearby M93 (two residues away from L2.46) to alanine also confers stability to the agonist bound receptor, resulting in an increase of 2.9° C.
(§1) A2AR-(2-316) expression was carried out by using the pRG/III-hs-MBP E. coli expression vector and DH5α cells. Cells were grown at 37° C. in 2 L flasks containing 500 mL of 2×TY medium supplemented with Ampicillin (100 μg/mL) and glucose (0.2% w/v). At OD600≈0.7, IPTG and theophylline were added at final concentrations respectively of 0.5 mM and 100 μM, and the temperature was reduced to 20° C. After 22 to 24 hours, cells were harvested in aliquots of 14 mL, centrifuged for 30 min and stored at −20° C. Both 5HT2C and M4 receptors were transiently expressed in HEK293T cells using GeneJuice transfection reagent used according to the manufacturers guidelines.
(§2) 5HT2C receptor was solubilised from transiently transfected mammalian cells in 50 mM Hepes pH7.4, 100 mM KCl, 0.5% DDM (0.1% CHS/0.6% CHAPS was added to cells for SCH23390 agonist assay). Tm analysis was performed directly on the soluble lysate. The Tm was determined by incubating 108 μl of the lysate with [N^6-methyl-^3H]Mesulergine radioligand at a final concentration of 17 nM or 9 nM [^3H]SCH23390 for one hour at 4° C. The six ligand incubations are then incubated at six different temperatures from 25° C. to 55° C., for thirty minutes. Receptor bound and free radioligand were separated using a 96-well plate gel filtration assay.
(§3) 5HT2C receptor was solubilised from transiently transfected mammalian cells about 40 hours post transfection, in 50 mM Hepes pH7.4/100 mM KCl/0.5% DDM/(0.1% CHS/0.6% CHAPS was added to cells for SCH23390 agonist assay) and protease inhibitor. Cell lysates were left at 4° C. on a rotator and then cleared by centrifugation at 13,200 rpm for 20 minutes at 4° C. Thermostability analysis was performed directly on the soluble lysate. The Tm was determined by incubating 108 μl of the lysate with [N^6-methyl-^3H]Mesulergine radioligand at a final concentration of 17 nM or 9 nM [^3H]SCH23390 for one hour at 4° C. The six ligand incubations are then incubated at six different temperatures from 25° C. to 55° C., for thirty minutes. Receptor bound and free radioligand were separated using G25 Sephadex spin columns.

5HT2C receptor [2] = assay: Two point thermostability assay, SCH23390 agonist binding to 5HT2C alanine scan mutants; assay type: physicochemical, human
Protocol: An alanine scan has been carried out on the 5HT2C receptor in the presence of the agonist SCH23390 in order to stabilise the agonist conformation.
as §3

5HT2C receptor [3] = assay: Antagonist binding to 5HT2C NPxxY motif alanine mutants (Table 1); design: species or system human; Average / Average - BG: unit not given here; details: for % of Wildtype binding / DPM1 / DPM2: antagonist Mesulergine binding; for DPM1: replicate 1; for DPM2: replicate 2; for Average - BG: average minus background; for Average: average of DPM1 and DPM2
Protocol: An alanine scan was carried out in a similar fashion on an adenosine A2A receptor along with the 5HT2C receptor in the presence of the antagonist Mesulergine. Both alanine scans were carried out in order to further stabilize the antagonist conformation. […] The motif in Adenosine A2A is NPFIY (SEQ ID NO: 364) and for the 5HT2C is NPLVY (SEQ ID NO: 363). Therefore mutations in this region of the receptor contain stabilising mutations specific to the agonist conformation and detrimentally effect antagonist binding.
as §3

5HT2C receptor [4] = assay: Thermostability of 5HT2C receptor bound to antagonist mesulergine; assay type: physicochemical, human; details: bound to antagonist (mesulergine)
Protocol: as §1, §2

M4 muscarinic receptor = assay: Thermostability of M4 muscarinic receptor bound to antagonist NMS; assay type: physicochemical, human; details: bound to antagonist NMS
Protocol: In order to stabilise the M4 muscarinic receptors in antagonist conformation, a systematic alanine-scan was performed to identify mutations that stabilise receptors bound to the muscarinic antagonist, NMS. […] However, L71A (three residues N-terminal of the L2.46) was identified as a stabilising mutation. This mutation increases the Tm of this receptor by about 2° C. (FIG. 8a).
as §1
Transiently transfected mammalian cells expressing M4 were harvested about 40 hours post transfection and the receptors were solubilised in 50 mM Tris pH 7.5/250 mM NaCl/1% DDM/EDTA free protease inhibitor mix for 1 hour rotating at 4° C. The solubilised lysate was then cleared by centrifugation at 13000 rpm for 15 minutes at 4° C. The solubilised receptors were then purified on Ni-NTA beads and eluted with 100 mM histidine. The eluted receptor was used in radioligand binding assay. Thermostability of M4 was measured using 25 μL of purified receptor mixed with 95 μL of 12 nM [^3H]-NMS (final concentration of 10 nM). The sample was incubated for 60 min at 4° C., then 30 min at the specified temperature and then 30 min at 4° C. Receptor bound and free radioligand were separated using a 96-well plate gel filtration assay.

CRF1 = assay: Thermostability of CRF1 bound to antagonist CP-376395, purified in DDM; assay type: physicochemical, human; details: antagonist-bound state (CP-376395), purified in DDM
Protocol: In order to stabilise CRF1 in the antagonist conformation, a systematic alanine-scan was performed to identify mutations that stabilise receptors bound to the antagonist ligand CP-376395. Mutating I2.58 to alanine (I163A) confers significant stabilisation in CRF1, increasing the thermal stability by 3.9 (±0.5)° C. (FIG. 15).
CRF1 receptors were transiently expressed in HEK293T cells on 10 cm plates using GeneJuice transfection reagent used according to manufacturers guidelines.
Cells expressing CRF1 were harvested in PBS approximately 40 hours post-transfection and re-suspended in 950 μl Re-suspension buffer (50 mM Tris-HCl, 150 mM NaCl, 2× Complete EDTA-free Protease inhibitor cocktail (Roche), pH7.5). Cells were incubated with 120 nM CP-376395 and 30 nM [^3H]-CP-376395 at 37° C. for 2 hours before transferring to ice for 5 minutes. The receptors were solubilised by the addition of 1% DDM and incubated at 4° C. for 1 hour with gentle agitation. Insoluble material was removed by centrifugation at 16000×g for 10 minutes at 4° C. The solubilised receptors were partially purified with Ni-NTA agarose (Qiagen). Ni-NTA resin was equilibrated in Equilibration buffer (50 mM Tris-HCl, 150 mM NaCl, 2× Complete EDTA-free Protease inhibitor cocktail (Roche), 0.025% DDM, pH7.5) and 400 μl of a 50:50 resin slurry was added to each sample. Resin slurries were incubated at 4° C. for 1 hour 30 minutes with gentle agitation to bind receptors. Resin slurries were then transferred to a batch column filter plate (Chromabond) and centrifuged at 1000×g for 1 minute, discarding the flow-through. Resin was washed twice with 1 ml of Wash buffer (50 mM Tris-HCl, 150 mM NaCl, 2× Complete EDTA-free Protease inhibitor cocktail (Roche), 0.025% DDM, 20 mM Imidazole, pH7.5) and then eluted in 1 ml of Elution buffer (50 mM Tris-HCl, 150 mM NaCl, 2× Complete EDTA-free Protease inhibitor cocktail (Roche), 0.025% DDM, 100 mM histidine, 30 nM [^3H]-CP-376395, 120 nM CP-376395, pH7.5) by resuspension at 4° C. for 30 minutes. Eluted samples were used directly in the thermostability assay. […]

Row | Molecule | increase of Tm (5HT2C receptor [1]; agonist SCH23390 bound, versus parent 5HT2C) [°C] | thermostability (agonist binding at the destabilising temperature compared to wild type) (5HT2C receptor [2]) | % of Wildtype binding (5HT2C receptor [3]) [%] | DPM1 (5HT2C receptor [3]) [DPM] | DPM2 (5HT2C receptor [3]) [DPM] | Average - BG (5HT2C receptor [3]) | Average (5HT2C receptor [3]) | Tm (5HT2C receptor [1]; bound to agonist SCH23390) [°C] | Tm (5HT2C receptor [4]) [°C] | Tm (M4 muscarinic receptor) [°C] | Tm (CRF1) [°C]
1 | L366: 5HT2C receptor mutant, residue 7.51 (L366, L in NPLVY) to alanine (protein, UniProt P28335 33-458, looked up, variant L366A) 5-hydroxytryptamine receptor …: IVTDIFNTSDGGRFKFPDGVQNWPALSIVIIIIMTIGGNILVIMAVSMEKKLHNATNYFLMSLAIADMLVGLLVMPLSLLAILYDYVWPLPRYLCPVWISLDVLFSTASIMHLCAISLDRYVAIRNPIEHSRFNSRTKAIMKIAIVWAISIGVSVPIPVIGLRDEEKVFVNNTTCVLNDPNFVLIGSFVAFFIPLTIMVITYCLTIYVLRRQALMLLHGHTEEPPGLSLDFLKCCKRNTAEEENSANPNQDQNARRRKKKERRPRGTMQAINNERKASKVLGIVFFVFLIMWCPFFITNILSVLCEKSCNQKLMEKLLNVFVWIGYVCSGINPAVYTLFNKIYRRAFSNYLRCNYKVEKKPPVRQIPRVAATALSGRELNVNIYRHTNEPVIEKASDNEPGIEMQVENLELPVNPSSVVSERISSV | 4 | increased agonist binding compared to the wild type receptor | 19.27 | 2515 | 1897 | 1774.5 | 2206 |  |  |  | 
2 | 5HT2C: wild type (parent) human 5HT2C receptor (protein, listed as Homo sapiens) MVNLRNAVHSFLVHLIGLLVWQCDISVSPVAAIVTDIFNTSDGGRFKFPDGVQNWPALSIVIIIIMTIGGNILVIMAVSMEKKLHNATNYFLMSLAIADMLVGLLVMPLSLLAILYDYVWPLPRYLCPVWISLDVLFSTASIMHLCAISLDRYVAIRNPIEHSRFNSRTKAIMKIAIVWAISIGVSVPIPVIGLRDEEKVFVNNTTCVLNDPNFVLIGSFVAFFIPLTIMVITYCLTIYVLRRQALMLLHGHTEEPPGLSLDFLKCCKRNTAEEENSANPNQDQNARRRKKKERRPRGTMQAINNERKASKVLGIVFFVFLIMWCPFFITNILSVLCEKSCNQKLMEKLLNVFVWIGYVCSGINPLVYTLFNKIYRRAFSNYLRCNYKVEKKPPVRQIPRVAATALSGRELNVNIYRHTNEPVIEKASDNEPGIEMQVENLELPVNPSSVVSERISSV |  |  | 100 | 10202 | 9631 | 9208 | 9916.5 | 43.35 | 37.1 |  | 
3 | M4: parent human M4 muscarinic receptor (protein, UniProt P08173 1-479, looked up) Muscarinic acetylcholine …: MANFTPVNGSSGNQSVRLVTSSSHNRYETVEMVFIATVTGSLSLVTVVGNILVMLSIKVNRQLQTVNNYFLFSLACADLIIGAFSMNLYTVYIIKGYWPLGAVVCDLWLALDYVVSNASVMNLLIISFDRYFCVTKPLTYPARRTTKMAGLMIAAAWVLSFVLWAPAILFWQFVVGKRTVPDNQCFIQFLSNPAVTFGTAIAAFYLPVVIMTVLYIHISLASRSRVHKHRPEGPKEKKAKTLAFLKSPLMKQSVKKPPPGEAAREELRNGKLEEAPPPALPPPPRPVADKDTSNESSSGSATQNTKERPATELSTTEATTPAMPAPPLQPRALNPASRWSKIQIVTKQTGNECVTAIEIVPATPAGMRPAANVARKFASIARNQVRKKRQMAARERKVTRTIFAILLAFILTWTPYNVMVLVNTFCQSCIPDTVWSIGYWLCYVNSTINPACYALCNATFKKTFRHLLLCQYRNIGTAR |  |  |  |  |  |  |  |  |  | 34.0 | 
4 | CRF1-WT: wild type human CRF1 receptor (protein, UniProt P34998 24-415, looked up) Corticotropin-releasing …: SLQDQHCESLSLASNISGLQCNASVDLIGTCWPRSPAGQLVVRPCPAFFYGVRYNTTNNGYRECLANGSWAARVNYSECQEILNEEKKSKVHYHVAVIINYLGHCISLVALLVAFVLFLRLRSIRCLRNIIHWNLISAFILRNATWFVVQLTMSPEVHQSNVGWCRLVTAAYNYFHVTNFFWMFGEGCYLHTAIVLTYSTDRLRKWMFICIGWGVPFPIIVAWAIGKLYYDNEKCWFGKRPGVYTDYIYQGPMILVLLINFIFLFNIVRILMTKLRASTTSETIQYRKAVKATLVLLPLLGITYMLFFVNPGEDEVSRVVFIYFNSFLESFQGFFVSVFYCFLNSEVRSAIRKRWHRWQDKHSIRARVARAMSIPTSPTRVSFHSIKQSTAV |  |  |  |  |  |  |  |  |  |  | 26.8
